Assay [1] deals with T1, human Notch3 on the cell surface (human, UniProt Q9UM47 40-2321).
T1 construct: whole, on cells; the cells carry the full length protein; also called cell surface human Notch3; hNotch3
Description: FACS on CHO N3 cells (human Notch3), 4 C, one site binding fit. How it is done:
(§1) Binding to cell surface human Notch3 by the antibody 4F11 was measured at 4° C., using Fluorescence Activated Cell Sorting (FACS). CHO N3 (Flp-In-CHO cells (Invitrogen) stably transfected with human Notch3), HCC2429 cells, and RL-952 cells expressing human Notch3 were washed once with PBS containing calcium chloride and magnesium chloride (Invitrogen) and harvested using cell dissociation buffer (Invitrogen). Cells were washed a second time with PBS and resuspended in FACS buffer (PBS with 0.5% BSA (Sigma-Aldrich)) for a final cell concentration of 250,000 cells per well into a 96-well v-bottom plate. Purified antibodies were diluted in FACS buffer over a concentration range of 100 nM to 0.1 nM. Cells were then incubated at 4° C. with […] of antibody for one hour, washed with FACS buffer twice, and resuspended in […] of goat-anti mouse PE-conjugated antibody (Jackson Immuno Research). Cells were incubated at 4° C. for 30 minutes in the dark, washed once with FACS buffer, and then analyzed using a Beckman Coulter Cytomics FC 500 instrument. The geometric mean of the florescent intensity was then calculated for each antibody concentration. These values were then entered into Prism software (GraphPad, La Jolla, Calif.) and used to generate a binding curve by plotting geometric mean versus antibody concentration. […]

Assay [2] has as its target T1, human Notch3 on the cell surface. Put plainly: FACS on HCC2429 cells (human Notch3), 4 C, one site binding fit. As to the method: as §1
The target in assay [3] is T2, human Notch4 expressed on the surface of CHO cells (human, UniProt Q99466 24-2003).
T2 construct: whole, on cells
T2 sequence (Q99466 24-2003): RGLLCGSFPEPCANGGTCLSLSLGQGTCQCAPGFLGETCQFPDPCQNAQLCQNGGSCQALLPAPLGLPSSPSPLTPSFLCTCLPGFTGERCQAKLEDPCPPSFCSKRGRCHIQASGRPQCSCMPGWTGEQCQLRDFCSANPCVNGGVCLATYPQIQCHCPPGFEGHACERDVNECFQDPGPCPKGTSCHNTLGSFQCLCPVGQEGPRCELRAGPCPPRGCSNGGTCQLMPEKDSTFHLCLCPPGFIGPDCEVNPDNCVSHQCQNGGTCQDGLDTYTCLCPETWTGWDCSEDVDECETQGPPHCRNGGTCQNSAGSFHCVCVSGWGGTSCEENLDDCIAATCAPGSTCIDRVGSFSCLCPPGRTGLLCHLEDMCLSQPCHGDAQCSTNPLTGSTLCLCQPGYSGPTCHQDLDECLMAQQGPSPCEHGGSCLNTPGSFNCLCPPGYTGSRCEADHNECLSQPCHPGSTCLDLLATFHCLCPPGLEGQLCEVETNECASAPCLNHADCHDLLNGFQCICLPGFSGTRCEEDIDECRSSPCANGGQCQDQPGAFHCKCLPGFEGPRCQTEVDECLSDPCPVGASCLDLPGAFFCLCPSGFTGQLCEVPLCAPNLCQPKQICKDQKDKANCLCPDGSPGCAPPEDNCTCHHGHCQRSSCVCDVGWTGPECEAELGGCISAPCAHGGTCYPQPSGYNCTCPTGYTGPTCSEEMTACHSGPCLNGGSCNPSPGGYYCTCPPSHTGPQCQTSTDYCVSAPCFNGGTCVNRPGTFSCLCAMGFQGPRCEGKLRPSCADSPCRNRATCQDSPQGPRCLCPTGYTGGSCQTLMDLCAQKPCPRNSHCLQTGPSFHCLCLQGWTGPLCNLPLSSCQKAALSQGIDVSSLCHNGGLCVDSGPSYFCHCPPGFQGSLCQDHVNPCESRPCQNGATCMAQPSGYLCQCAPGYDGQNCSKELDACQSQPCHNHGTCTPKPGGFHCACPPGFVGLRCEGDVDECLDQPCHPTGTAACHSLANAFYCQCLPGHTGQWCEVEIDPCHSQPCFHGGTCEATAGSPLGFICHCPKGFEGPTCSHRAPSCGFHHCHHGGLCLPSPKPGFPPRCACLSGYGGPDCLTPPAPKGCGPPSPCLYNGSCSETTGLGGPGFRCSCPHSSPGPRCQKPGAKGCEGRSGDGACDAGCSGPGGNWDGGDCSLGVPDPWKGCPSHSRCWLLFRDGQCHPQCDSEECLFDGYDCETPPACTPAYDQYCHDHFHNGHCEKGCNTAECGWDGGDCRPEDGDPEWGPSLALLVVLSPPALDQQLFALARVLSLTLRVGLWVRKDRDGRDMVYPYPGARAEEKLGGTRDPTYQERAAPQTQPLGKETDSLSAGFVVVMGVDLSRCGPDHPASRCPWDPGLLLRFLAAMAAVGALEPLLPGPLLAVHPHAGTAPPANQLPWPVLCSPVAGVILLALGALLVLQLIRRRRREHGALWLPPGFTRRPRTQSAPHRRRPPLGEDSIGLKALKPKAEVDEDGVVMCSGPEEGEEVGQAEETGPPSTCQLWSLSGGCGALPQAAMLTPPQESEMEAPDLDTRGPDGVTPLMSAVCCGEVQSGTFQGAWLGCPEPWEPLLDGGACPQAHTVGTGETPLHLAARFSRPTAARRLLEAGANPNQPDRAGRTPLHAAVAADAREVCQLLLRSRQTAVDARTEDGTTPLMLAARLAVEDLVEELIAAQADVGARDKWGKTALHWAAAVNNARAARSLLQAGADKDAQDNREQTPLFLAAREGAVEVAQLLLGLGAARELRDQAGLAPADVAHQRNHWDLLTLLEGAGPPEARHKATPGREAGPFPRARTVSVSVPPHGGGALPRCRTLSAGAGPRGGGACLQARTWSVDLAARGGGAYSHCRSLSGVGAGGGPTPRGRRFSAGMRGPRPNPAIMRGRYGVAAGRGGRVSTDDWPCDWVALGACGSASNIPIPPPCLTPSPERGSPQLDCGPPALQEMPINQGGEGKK
Put plainly: electrochemiluminescence (Meso Scale Discovery) on transfected CHO cells. As to the method:
(§2) To determine specificity of binding to cell surface Notch proteins, antibody 4F11 was tested for binding to human Notch1, human Notch2, human Notch3 and human Notch4 expressed on the surface of CHO cells using electrochemiluminescence (Meso Scale Discovery). A CHO line lacking any human Notch protein was also produced for use as a negative control. Cells were grown under standard conditions (37° C., F12+10% FBS). For binding studies, cells were washed in PBS containing calcium and magnesium, and removed from the plate by treatment with Cell Dissociation Buffer (Life Technologies) for ten minutes at 37° C.
(§3) Cells were seeded at a density of 30,000 cells per well, in hybridoma media, instandard 96-well binding plates (Meso Scale Discovery, Cat. No. L15XA-6). Cells were incubated for one hour at 37° C. Antibodies or control IgG were added at 5 μg/ml, in 50 μl hybridoma media, and incubated for one hour at 37° C. The plates were washed twice with PBS containing 3% BSA. Binding of the antibodies to cell surface was detected using 2 μg/ml of MSD anti-mouse IgG secondary antibody (Meso Scale Discovery, Cat. No. R32AC-1) for one hour at 4° C. Plates were washed twice with PBS containing 3% BSA, and 150 μl of read buffer (Meso Scale Discovery Cat. No. R92TC-1) was added. The plates were analyzed on a Sector Imager 2400 instrument (Meso Scale Discovery).

Assay [4] has as its target T3, human Notch1 expressed on the surface of CHO cells (human, UniProt P46531 19-2555).
T3 construct: whole, on cells
The description is as above. How it is done:
as §2, §3

Assay [5] has as its target T4, human Notch2 expressed on the surface of CHO cells (human, UniProt Q04721 26-2471).
T4 construct: whole, on cells
The description is as above. As to the method:
as §2, §3

Assay [6] concerns the target T5, recombinant human Notch3 extracellular domain (containing EGF like domains 1-11) Fc fusion protein (human, UniProt Q9UM47 40-467).
T5 construct: domain: EGF like domains 1-11; also called rhNotch3-Fc; rhNotch3
T5 sequence (looked up): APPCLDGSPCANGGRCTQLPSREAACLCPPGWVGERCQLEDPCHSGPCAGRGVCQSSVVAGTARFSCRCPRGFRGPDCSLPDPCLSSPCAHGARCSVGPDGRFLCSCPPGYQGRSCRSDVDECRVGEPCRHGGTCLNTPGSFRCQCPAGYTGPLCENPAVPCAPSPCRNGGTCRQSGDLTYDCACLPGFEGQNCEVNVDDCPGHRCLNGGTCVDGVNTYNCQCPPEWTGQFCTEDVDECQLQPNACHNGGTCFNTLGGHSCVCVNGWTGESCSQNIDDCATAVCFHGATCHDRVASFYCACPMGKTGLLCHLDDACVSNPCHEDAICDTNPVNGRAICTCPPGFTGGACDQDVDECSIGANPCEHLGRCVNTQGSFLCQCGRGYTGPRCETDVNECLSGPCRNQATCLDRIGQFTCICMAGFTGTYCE
Put plainly: SPR Biacore T100, 4F11 captured by anti-mouse IgG, rhNotch3-Fc analyte, 25 C. How it is done: The binding affinity and kinetics of binding of antibody 4F11 to recombinant human Notch3 extracellular domain (containing EGF like domains 1-11) Fc fusion protein (rhNotch3-Fc (R&D Systems, Inc., Minneapolis, Minn.)) were measured by surface plasmon resonance using a Biacore® T100 instrument (GE Healthcare, Piscataway, N.J.).
Rabbit anti-mouse IgGs (GE Healthcare) were immobilized on carboxymethylated dextran CM4 sensor chips (GE Healthcare) by amine coupling, according to a standard protocol. Analyses were performed at 25° C. and 37° C. using PBS containing 0.05% surfactant P20 as running buffer. The antibody was captured in individual flow cells at a flow rate of 10 μl/minute. Injection time was varied for each antibody to yield an Rmax between 30 and 60 resonance units (RU). Buffer or rhNotch3-Fc diluted in running buffer was injected sequentially over a reference surface (no antibody captured) and the active surface (antibody to be tested) for 240 seconds at 60 μl/minute. The dissociation phase was monitored for up to 1500 seconds. The surface was then regenerated with two 60-second injections of 10 mM Glycine-HCl, pH 2.25, at a flow rate of 30 μl/minute. The rhNotch3-Fc concentration range tested was 100 nM to 3.125 nM (2 fold dilution).
Kinetic parameters were determined using the kinetic function of the BIAevaluation software (GE Healthcare) with double reference subtraction. Kinetic parameters for the antibody, kₐ (association rate constant), kd (dissociation rate constant) and KD (equilibrium dissociation constant) were determined.

T3 sequence (P46531 19-2555): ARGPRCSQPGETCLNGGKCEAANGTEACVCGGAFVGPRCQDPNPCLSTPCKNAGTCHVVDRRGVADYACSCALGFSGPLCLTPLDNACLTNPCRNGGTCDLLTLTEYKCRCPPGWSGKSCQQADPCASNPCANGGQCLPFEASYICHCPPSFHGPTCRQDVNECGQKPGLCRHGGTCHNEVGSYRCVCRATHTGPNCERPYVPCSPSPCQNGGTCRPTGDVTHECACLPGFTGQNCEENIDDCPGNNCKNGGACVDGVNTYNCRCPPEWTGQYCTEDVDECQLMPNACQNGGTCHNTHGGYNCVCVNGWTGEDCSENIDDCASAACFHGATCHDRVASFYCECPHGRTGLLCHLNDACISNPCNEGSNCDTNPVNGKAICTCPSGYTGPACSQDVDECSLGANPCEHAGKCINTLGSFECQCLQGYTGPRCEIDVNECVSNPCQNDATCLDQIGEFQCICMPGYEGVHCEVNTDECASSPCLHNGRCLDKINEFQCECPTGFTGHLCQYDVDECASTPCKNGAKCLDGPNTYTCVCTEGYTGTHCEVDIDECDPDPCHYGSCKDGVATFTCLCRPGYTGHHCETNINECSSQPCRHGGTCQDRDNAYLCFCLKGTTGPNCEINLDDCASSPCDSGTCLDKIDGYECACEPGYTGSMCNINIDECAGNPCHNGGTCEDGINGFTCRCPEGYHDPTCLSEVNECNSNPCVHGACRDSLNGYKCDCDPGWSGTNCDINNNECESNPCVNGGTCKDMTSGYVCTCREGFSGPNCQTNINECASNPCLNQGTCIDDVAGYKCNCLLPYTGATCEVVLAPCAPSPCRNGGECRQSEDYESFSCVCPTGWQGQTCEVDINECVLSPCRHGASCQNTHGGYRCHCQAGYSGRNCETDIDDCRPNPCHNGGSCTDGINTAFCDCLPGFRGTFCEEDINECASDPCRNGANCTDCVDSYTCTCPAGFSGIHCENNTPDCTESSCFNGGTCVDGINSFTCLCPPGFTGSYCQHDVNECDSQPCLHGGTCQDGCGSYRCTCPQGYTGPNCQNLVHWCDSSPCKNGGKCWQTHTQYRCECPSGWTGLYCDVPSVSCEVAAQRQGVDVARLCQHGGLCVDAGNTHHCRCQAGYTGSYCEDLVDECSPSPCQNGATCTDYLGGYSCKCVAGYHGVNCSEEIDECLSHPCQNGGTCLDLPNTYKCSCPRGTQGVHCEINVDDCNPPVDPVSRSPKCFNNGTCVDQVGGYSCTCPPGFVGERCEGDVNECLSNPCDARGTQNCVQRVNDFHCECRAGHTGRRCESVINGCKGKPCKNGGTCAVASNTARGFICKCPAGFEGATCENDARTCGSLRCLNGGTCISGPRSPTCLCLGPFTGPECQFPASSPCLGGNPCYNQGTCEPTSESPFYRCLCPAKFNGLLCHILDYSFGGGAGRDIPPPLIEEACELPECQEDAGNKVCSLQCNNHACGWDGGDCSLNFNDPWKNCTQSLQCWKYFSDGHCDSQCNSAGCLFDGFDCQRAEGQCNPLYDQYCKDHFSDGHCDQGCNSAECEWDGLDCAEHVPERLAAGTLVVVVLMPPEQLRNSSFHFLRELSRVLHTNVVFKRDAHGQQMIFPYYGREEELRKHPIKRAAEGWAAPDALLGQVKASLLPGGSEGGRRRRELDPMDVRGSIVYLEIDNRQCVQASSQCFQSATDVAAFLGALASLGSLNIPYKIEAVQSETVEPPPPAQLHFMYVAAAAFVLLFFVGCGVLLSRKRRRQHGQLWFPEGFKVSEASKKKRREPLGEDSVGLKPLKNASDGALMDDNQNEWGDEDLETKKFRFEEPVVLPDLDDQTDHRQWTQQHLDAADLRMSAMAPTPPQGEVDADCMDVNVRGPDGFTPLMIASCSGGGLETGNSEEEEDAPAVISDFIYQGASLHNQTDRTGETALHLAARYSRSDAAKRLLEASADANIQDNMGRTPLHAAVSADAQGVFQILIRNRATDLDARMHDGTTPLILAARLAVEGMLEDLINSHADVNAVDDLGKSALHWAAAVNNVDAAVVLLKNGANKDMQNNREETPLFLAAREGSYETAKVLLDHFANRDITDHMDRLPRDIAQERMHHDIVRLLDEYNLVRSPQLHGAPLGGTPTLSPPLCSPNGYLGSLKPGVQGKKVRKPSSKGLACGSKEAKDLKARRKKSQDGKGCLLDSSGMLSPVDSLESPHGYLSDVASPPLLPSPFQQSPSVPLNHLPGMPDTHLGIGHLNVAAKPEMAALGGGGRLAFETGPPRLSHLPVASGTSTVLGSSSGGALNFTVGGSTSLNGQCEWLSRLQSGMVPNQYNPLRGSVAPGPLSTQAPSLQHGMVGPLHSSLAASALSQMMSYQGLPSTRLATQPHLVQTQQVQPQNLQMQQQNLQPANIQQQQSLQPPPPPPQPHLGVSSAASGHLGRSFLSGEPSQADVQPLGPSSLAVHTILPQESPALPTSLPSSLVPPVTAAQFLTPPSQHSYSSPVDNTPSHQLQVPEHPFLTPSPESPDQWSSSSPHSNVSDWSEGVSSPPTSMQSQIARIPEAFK

B1: antibody 4F11 (murine monoclonal anti-human Notch3) (antibody, mouse IgG1, kappa, V domains shown)
VH: EVQLVESGGGLVKPGGSLKLSCAASGFAFSSYDMSWVRQTPEKRLEWVAYISRGGGSTYYPDTVKGRFTISRDNAKNTLYLQMSSLKSEDTAMYYCGRHATTAYWYFDVWGAGTTVTVSS
VL: DVVMTQTPLSLPVSLGDQASISCRSSQSLVHTNGNTYLHWYLQKPGQSPKLLIYKVSNRFSGVPDRFSGSGSGTDFTLKISRVEAEDLGVYFCSQSTHVPWTFGGGTKLEIKR
notes: Mouse IgG1 kappa purified from hybridoma; also called mu4F11; murine 4F11
Take B1: the Kd is 360 pM in assay [1], 2580 pM in assay [2] and 823 pM in assay [6]. In addition, the binding result in assay [3], in assay [4] and in assay [5] was “no binding (tested: 5 µg/ml)” throughout. In assay [6], the koff was found to be 4.8e-05 s⁻¹. For the same molecule, the kon in assay [6] is 70000 M⁻¹ s⁻¹.

What is called Kd is the free concentration of one partner at which half of the binding sites on the other are occupied at equilibrium, for simple one-to-one binding. The term koff denotes a measure of how fast the partners let go of each other. One may read the kon as a measure of how fast the partners come together.

(Values after patent publication US20180230213A1 (AVEO PHARMACEUTICALS, published 2018).)
